Results published in patent publication USRE46585 (LABORATOIRE FRANCAIS DU FRACTIONNEMENT ET DES …, dated 2017).

Key:
FcRn-p3 fusion protein [1] = molecular target: T1, FcRn-p3 fusion protein (human, UniProt P55899 24-297; P61769 21-119); test: phage ELISA pH6
T1 construct: baculovirus expressed; coated on ELISA wells; not shown: amino terminal part of bacteriophage p3 protein and CVDE protein

FcRn-p3 fusion protein [2] = molecular target: T1, FcRn-p3 fusion protein; test: phage ELISA pH6 (est.)

Row | Binder | Ratio/Fc-H (FcRn-p3 fusion protein [1]) | Ratio/FWT (FcRn-p3 fusion protein [2])
1 | C3A_01 (other, EU numbering) CPPCPAPELLGGPSVFLFPPKPKDTLMISRTPEVTCVVVDVSHEDPEVKFNWYVDGVEVHNAKTKPREEQYNSTYRVVSVLTVLHQDWLDGKEYKCKVSNKALPVPIEKTISKAKGQPREPQVYTLPPSRDELTKNQVSLTCLVKGFYPSDIAVEWESNGQPENNYKTTPPVLDSDGSFFLYSKLTVDKSRWQQGNVFSCSVMHEALHYHYTQKSLSLSPGK | 2.5 fold | 8 fold
2 | C3A_43 (other, EU numbering) CPPCPAPELLGGPSVFLFPPKPKDTLMISRTPEVTCVVVDVSHEDPEVKFNWYVDGVEVHNAKTKPREEQYNSTYRVVSVLTVLHQDWLDGKEYKCKVSNKALPAPIEKTISKAKGQPREPQVYTLPPSRDELTKNQVSLTCLVKGFYPSDIAVEWESNGQPENNYKTTPPVLDSDGSFFLYSKLTVDKSGWQQGNVFSCSVMHEALHYHYTQKSLSLSPGK | 2.5 fold | 8.1 fold
3 | C3A_21 (other, EU numbering) CPPCPAPELLGGPSVFLFPPKPKDTLMISRTPEVTCVVVDVSHEDPEVKFNWYVDGVEVHNAKTKPREEQYNSTYRVVSVLTVLHQDWLDGKEYKCKVSNKALPVPIEKTISKAKGQPREPQVYTLPPSRDELTKNQVSLTCLVKGFYPSDIAVEWESNGQPENNYKTTPPVLDPDGSFFLYSKLTVDKSRWQQGNVFSCSVMHEALHYHYTQKSLSLSPGK | 3 fold | 9.8 fold
4 | C4A_06 (other, EU numbering) CPPCTAPELLGGPSVFLFPPKPKDTLMISRTPEVTCVVVDVSHEDPEVKFNWYVDGVEVHNAKTKPREEQYNSTYRVVSVLTVLHQDWLDGKEYKCKVSNKALPVPIEKTISKAKGQPREPQVYTLPPSRDELTKNQVSLTCLVKGFYPSDIAVEWESNGQPENNYKTTPPVLDSDGSFFLYSKLTVDKSRWQQGNVFSCSVMHEALHYHYTQKSLSLSPGK | 3.6 fold | 11.4 fold
5 | C3A_08 (other, EU numbering) CPPCPAPELLGGPSVFLFPPKPKDTLMISRTPEVTCVVEDVSHEDPEVKFNWYVDGVEVHNAKTKPREEQYNSTYRVVSVLTVLHQDWLNGKEYKCKVSNKALPAPIEKTISKAKGQPREPQVYTLSPSRDELTKNQVSLTCLVKGFYPSDIVVEWESNGQPENNYKTTPPVLDSDGSFFLYSKLTVDKSRWQQGNVFSCSVMHEALHSHYTQKSLSLSPGK | 3 fold | 9.7 fold
6 | C3A_31 (other, EU numbering) CPPCPAPELLGGPSVFLFPPKPKDTLMISRTPEVTCVVVDVSHEDPEVKFNWYVDGVEVHNAKTKPREEQYNSTYRVVSVLTVLHQDWLDGKEYKCKVSNKALPVPIEKTISKAKGQPREPQVYTLPPSRDELTKNQVSLTCLVKGFYPSDIAVEWESNGQPEKNYKTTPPVLDSGGSFFLYSKLTVDKSRWQQGNVFSCSVMHEALHYHYTQKSLSLSPGK | 2.2 fold | 6.9 fold
7 | C3A_24 (other, EU numbering) CPPCPAPELLGGPSVFLFPPKPKDTLMISRTPEVTCVVVDVSHEDPEVKFNWYVDGVEVHNAKTKPREEQYNSTYRVVSVLPVLHQDWLNGKEYKCKVSNKALPAPIEKTISKAKGQPREPQVYTLPPSRDELTKNQVSLTCLVKGFYPSDIAVEWESNGQPETNYKTTPPVLDSGGSFFLYSKLTVDKSRWQQGTVFSCSVMHEALHYHYTQKSLSLSPGK | 2.9 fold | 9.2 fold
8 | C3A_15 (other, EU numbering) CPPCPAPELLGGPSVFLFPPKPKDTLMISRTPEVTCVVEDVSHEDPEVKFNWYVDGVEVHNAKTKPREEQYNSTYRVVSVLAVLHQDWLNGKEYKCKVSNKALPAPIEKTISKAKGQPREPQVYTLPPSRDELTKNQVSLTCLVKGFYPSDIVVEWESNGQPENNYKTTPPVLDSDGSFFLYSKLTVDKSRWQQGNVFSCSVMHEALHNHYTQKSLSLSPGK | 1.9 fold | 6 fold
9 | C4A_01 (other, EU numbering) CPPCPAPELLGGPSVFLFPPKPKDTLMISRTPEVTCVVVDVSHEDPEVKFNWYVDGVEVHNAKTKPREEQYNSTYRVVSVLTVLHQDWLDGKEYKCKVSNKALPAPIEKTISKAKGQPREPQVYTLPPSRDELTKNRVSLTCLVKGFYPSDIAVEWESNGQPEKNYKTTPPVLDSDGSFFLYSKLTVDKSRWQQGNVFSCSVMHEALHYHYTQKSLSLSPGK | 2.4 fold | 7.5 fold
10 | C4A_15 (other, EU numbering) CPPCPAPDLLGGPSVFLFPPKPKDTLMISRTPEVTCVVVDVSHEDPEVKFNWYVDGVEVHNAKTKPREEQYNSTYRVVSVLTVLHQDWLDGKEYKCKVSNKALPAPIEKTISKAKGQPREPQVYTLPPSRDELTKNQVSLTCLVKGFYPSDIAVEWESNGQPENNYKTTPPVLDSDGSFFLYSKLTVDKSRWQQGNVFSCSVMHEALHYHYTQKSLSLSPGK | 2.2 fold | 6.9 fold
11 | C3A_07 (other, EU numbering) CPPCPAPELLGGPSVFLFPPKPKDTLMISRTPEVTCVVVDVSHEDPEVKFNWYVDGVEVHNAKTKPREEQYNSTYRVVSVLPVLHQDWLNGKEYKCKVSNKALPTPIEKTISKAKGQPREPQVYTLPPSRDELTKNQVSLTCLVKGFYPSDIVVEWESNGQPENNYKTTPPVLDSDGSFFLYSKLTVDKSRWQQGNVFSCSVMHEALHNHYTQKSLSLSPGK | 1.3 fold | 4.2 fold
12 | C3A_42 (other, EU numbering) CPPCPAPELLGGPSVFLFPPKPKDTLMISRTPEVTCVVVDVSHEDPEVKFNWYVDGVEVHNAKTKPREEQYNSTYRVVSVLTVLHQDWLDGKEYKCKVSNKALPVPIEKTISKAKGQPREPQVYTLPPSRDELTKNQVSLTCLVKGFYPSDIAVEWESNGQPEKNYKTTPPMLDSDGSFFLYSKLTVDKSRWQQGNVFSCSVMHEALHYHYTQKSLSLSPGK | 3.7 fold | 12 fold
13 | C3A_39 (other, EU numbering) CPPCPVPELLGGPSVFLFPPKPKDTLMISRTPEVTCVVVDVSHEDPEVKFNWYVDGVEVHNAKTKPREEQYNSTYRVVSVLTVLHQDWLNGKEYKCKVSNKALPAPIEKTISKAKGEPREPQVYTLPPSRDELTKNQVSLTCLVKGFYPSDIAVEWESNGQPENNYKTTPPVLDSDGSFFLYSKLTVDKSRWQQGNVFSCSVMHEALHYHYTQKSLSLSPGK | 1.8 fold | 5.6 fold

Now from value to binder:

Row | Ratio/Fc-H (FcRn-p3 fusion protein [1]) | Ratio/FWT (FcRn-p3 fusion protein [2]) | Binder
14 | 2.8 fold | 8.9 fold | C4A_36 (other, EU numbering) CPPCPAPELLGGPSVFLFPPKPKDTLMISRTPEVTCVVVDVSHEDPEVKFNWYVDGVEVHNAKTKPREEQYNSTYRVVSVLTVLHQDWLDGKEYTCKVSNKALPAPIEKTISKAKGQPREPQVYTLPPSRDELTKNQVSLTCLVKGFYPSDIAVEWESNGQPENNYKTTPPVLDSDGSFFLYSKLTVDKSRWQQGNVFSCSVMHEALHYHYTQKSLSLSPGK
15 | 2.8 fold | 8.9 fold | C4A_25 (other, EU numbering) CPPCPAPELLGGPSVFLFPPKPKDTLMISRTPEVTCVVVDVSHEDPEVKFNWYVDGVEVHNAKTKPREEQYNSTYRVVSVLTVLHQDWLDGKEYKCKVSNKALPVPIEKTISKAKGQPREPQVYTLPPSRDELTKNQVSLTCLVKGFYPSDIAVEWESNGQPENNYKTTPPMLDSDGSFFLYSKLTVDKSRWQQGNVFSCSVMHEALHYHYTQKSLSLSPGK
16 | 2.7 fold | 8.7 fold | C4A_27 (other, EU numbering) CPPCPAPELLGGPSVFLFPPKPKDTLMISRTPEVTCVVADVSHEDPEVKFNWYVDGVEVHNAKTKPREEQYNSAYRVVSVLTVLHQDWLNGKEYKCKVSNKALPAPIEKTISKAKGQPREPQVYTLPPSRDELTKNQVSLTCLVKGFYPSDIVVEWGSNGQPENNYKTTPPVLDSDGSFFLYSKLTVDKSRWQQGNVFSCSVMHEALHYHYTQKSLSLSPGK
17 | 3.8 fold | 12 fold | C4A_29 (other, EU numbering) CPPCPAPELLGGPSVFLFPPKPKDTLMISRTPEVTCVVVDVSHEDPEVKFNWYVDGVEVHNAKTKPREEQYNSTYRVVSVLPVLHQDWLDGKEYKCKVSNKALPAPIEKTISKAKGQPREPQVYTLPPSRDELTKSRVSLTCLVKGFYPSDIAVEWESNGQPENNYKTTPPVLDSDGSFFLYSKLTVDKSRWQQGNVFSCSVMHEALHYHYTQKSLSLSPGK
18 | 1.7 fold | 5.4 fold | C4A_32 (other, EU numbering) CPPCPAPELLGGPSVFLFPPKPKDTLMISRTPEVTCVVEDVSHEDPEVKFNWYVDGVEVHNAKTKPREEQYNSTYRVVSVLTVLHQDWLDGKEYKCKVSNKALPAPIEKTISKAKGQPREPQVYTLPPSRDELTKNQVSLTCLVKGFYPSDIVVEWESNGQPENNYKTTPPVLDSDGSFFLYSKLTVDKSRWQQGNVFSCSVMHEALHNHYTQKSLSLSPGK
19 | 3.4 fold | 10.8 fold | C4A_28 (other, EU numbering) CPPCPAPELLGGPSVFLFPPKPKDTLMISRTPEVTCVVEDVSHEDPEVKFNWYVDGVEVHNAKTKPREEQYNSTYRVVSVLTVLHQDWLNGKEYKCKVSNKALPAPIEKTISKAKGQPREPQVYTLPPSRDELTKNQVSLTCLVKGFYPSDIVVEWESNGQPENNYKTTPPVLDSDGSFFLYSKLTVDKSRWQQGNVFSCSVMHEALHYHYTQKSLSLSPGK
20 | 2.3 fold | 7.5 fold | C4A_24 (other, EU numbering) CPPCPAPELLGGPSVFLFPPKPKDTLMISRTPEVTCVVVDVSHEDPEVKFNWYVDGVEVHNAKTKPREEQYNSTYRVVSVLTVPHQDWLDGKEYKCKVSNKALPVPIEKTISKAKGQPREPQVYTLPPSRDELTKNQVSLTCLVKGFYPSDIAVEWESNGQPENNYKTTPPVLDSDGSFFLYSKLTVDKSRWQQGNVFSCSVMHEALHYHYTQKSLSLSPGK
21 | 2.5 fold | 8.1 fold | C4A_18 (other, EU numbering) CPPCPAPELLGGPSVFLFPPKPKDTLMISRTPEVTCVVVDVSHEDPEVKFNWYVDGVEVHNAKTKPREEQYNSTYRVVSVLTVLHQDWLDGKEYKCKVSNKALPVPIEKTISKAKGQPREPQVYTLPPSRDELTKNQVSLTCLVKGFYPSDIVVEWESNGQPENNYKTTPPVLDSDGSFFLYSKLTVDKSRWQQGNVFSCSVMHEALHYHYTQKSLSLSPGK
